# Experimental data published in patent US20200216494A1 (ROYAL MELBOURNE INSTITUTE OF TECHNOLOGY, published 2020).
# T1: NOX2 (catalytic subunit of NOX2 NADPH oxidase) (mouse, UniProt Q61093 2-570)
# T1 construct: whole, on cells; Endogenous protein in mouse alveolar macrophages, BMDMs and RAW264.7 cells; also called gp91phox; CYBB
# T1 sequence (looked up): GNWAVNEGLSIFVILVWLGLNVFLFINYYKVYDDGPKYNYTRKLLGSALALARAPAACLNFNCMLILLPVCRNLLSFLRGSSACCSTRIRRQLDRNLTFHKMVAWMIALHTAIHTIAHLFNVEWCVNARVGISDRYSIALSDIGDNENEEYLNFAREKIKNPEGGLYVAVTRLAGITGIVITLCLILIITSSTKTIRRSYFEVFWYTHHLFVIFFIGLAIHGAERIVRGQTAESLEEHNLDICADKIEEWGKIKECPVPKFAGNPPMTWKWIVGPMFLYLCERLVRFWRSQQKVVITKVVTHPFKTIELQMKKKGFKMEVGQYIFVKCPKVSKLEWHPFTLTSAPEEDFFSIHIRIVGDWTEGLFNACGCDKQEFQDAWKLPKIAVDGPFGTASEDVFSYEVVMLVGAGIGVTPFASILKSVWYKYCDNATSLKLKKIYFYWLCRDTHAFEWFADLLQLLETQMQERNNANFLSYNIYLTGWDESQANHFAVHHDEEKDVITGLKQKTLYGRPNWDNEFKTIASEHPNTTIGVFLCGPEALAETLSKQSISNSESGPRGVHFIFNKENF
# B1: p47phox regulatory subunit of NOX2 oxidase (other, mouse, UniProt Q09014 1-390, looked up)
# chain: MGDTFIRHIALLGFEKRFIPSQHYVYMFLVKWQDLSEKVVYRKFTEIYEFHKMLKEMFPIEAGEIHTENRVIPHLPAPRWFDGQRAAESRQGTLTEYFNGLMGLPVKISRCPHLLDFFKVRPDDLKLPTDSQAKKPETYLVPKDGKNNVADITGPIILQTYRAIADYEKSSGTEMTVATGDVVDVVEKSESGWWFCQMKTKRGWVPASYLEPLDSPDEAEDPDPNYAGEPYVTIKAYAAVEEDEMSLSEGEAIEVIHKLLDGWWVVRKGDITGYFPSMYLQKAGEEITQAQRQIRGRGAPPRRSTIRNAQSIHQRSRKRLSQDTYRRNSVRFLQQRRRPGRPGPLSTDGTKDNPSTPRVKPQPAVPPRPSSDLILHRCTESTKRKLTSAV
# notes: whole, on cells; Cytosolic subunit, endogenous in the cells
# Biological target: T1, NOX2 (catalytic subunit of NOX2 NADPH …)
# Test: confocal immunofluorescence of NOX2 and p47phox association (NOX2 oxidase assembly) in HKx31-infected mouse macrophages
binder,measurement,value
B1,binding result,binds
